The target of data set [1] is T1, PaDHDPR (Paenisporosarcina sp. TG-14, UniProt A0A3B6UER2).
T1 construct: gene dapB; full length, residues 1-264; pET-28a N-terminal His tag removed by thrombin; expressed in E. coli BL21(DE3); homotetramer
T1 sequence (A0A3B6UER2 2-265): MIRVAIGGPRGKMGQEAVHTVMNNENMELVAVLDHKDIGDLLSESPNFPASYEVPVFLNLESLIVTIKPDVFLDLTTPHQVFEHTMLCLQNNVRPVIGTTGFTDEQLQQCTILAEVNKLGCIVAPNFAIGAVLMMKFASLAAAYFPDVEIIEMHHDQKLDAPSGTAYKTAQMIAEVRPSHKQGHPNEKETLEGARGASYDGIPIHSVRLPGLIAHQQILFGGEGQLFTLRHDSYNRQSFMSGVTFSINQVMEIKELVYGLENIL
The experiment in a line: X-ray crystallography, co-crystals, […] Å (binary) and […] Å (with NADPH). It counts as binding. Conditions: 10 mM DPA; substrate site of the C-terminal domain; competitive inhibitor.

Data set [2] addresses Dihydrodipicolinate reductase from Paenisporosarcina sp. TG-14 (Paenisporosarcina sp. TG-14). The experiment in a line: AUC; analytical centrifugation of purified PaDHDPR; conditions not told in the main text.
For data set [3], the target named is T1, PaDHDPR. In words: isothermal titration calorimetry, one-site model. It counts as binding.
Data set [4] concerns the target T2, PaDHDPR (Paenisporosarcina sp. TG-14, UniProt A0A3B6UER2, K37A).
T2 construct: gene dapB; full length, residues 1-264; pET-28a N-terminal His tag removed by thrombin; expressed in E. coli BL21(DE3); homotetramer
The experiment in a line: isothermal titration calorimetry, one-site model. It counts as binding. (In general: Isothermal titration calorimetry measures the heat released or taken up as one component is titrated into another.)

Data set [5] has as its target T3, PaDHDPR (Paenisporosarcina sp. TG-14, UniProt A0A3B6UER2, H36A).
T3 construct: gene dapB; full length, residues 1-264; pET-28a N-terminal His tag removed by thrombin; expressed in E. coli BL21(DE3); homotetramer
In words: isothermal titration calorimetry, one-site model. Format: binding. As to conditions: 50 mM Tris-HCl, 150 mM NaCl, pH 8.0, 25 °C.

For data set [6], the target named is T1, PaDHDPR. The experiment in a line: isothermal titration calorimetry. Format: binding. Conditions: 50 mM Tris-HCl, 150 mM NaCl, pH 8.0, 25 °C; 80 μM protein, 1 mM ligand.
Substrate in data set [7]: NC(=O)C1=CN([C@@H]2O[C@H](COP(=O)(O)OP(=O)(O)OC[C@H]3O[C@@H](n4cnc5c(N)ncnc54)[C@H](OP(=O)(O)O)[C@@H]3O)[C@@H](O)[C@H]2O)C=CC1
The experiment in a line: purified protein. Format: biochemical, Paenisporosarcina sp. TG-14. Conditions: NADPH varied, DHDP generated from ASA and pyruvate, 100 mM HEPES pH 7.5, 25 °C, varied: cofactor.

Substrate in data set [8]: NC(=O)C1=CN([C@@H]2O[C@H](COP(=O)(O)OP(=O)(O)OC[C@H]3O[C@@H](n4cnc5c(N)ncnc54)[C@H](O)[C@@H]3O)[C@@H](O)[C@H]2O)C=CC1
The experiment in a line: purified protein. Format: biochemical, Paenisporosarcina sp. TG-14. As to conditions: NADH varied, DHDP generated from ASA and pyruvate, 100 mM HEPES pH 7.5, 25 °C, varied: cofactor.

Substrate in data set [9]: O=C(O)C1=N[C@H](C(=O)O)CC=C1
In words: purified protein. Conditions: ASA (L-aspartate-semialdehyde) concentration varied and printed as the substrate, ASA fully converted to DHDP by PaDHDPS with 1 mM pyruvate, NADPH, 100 mM HEPES pH 7.5, 25 °C. Format: biochemical, Paenisporosarcina sp. TG-14.

T2 sequence (A0A3B6UER2 entry or part of it K37A): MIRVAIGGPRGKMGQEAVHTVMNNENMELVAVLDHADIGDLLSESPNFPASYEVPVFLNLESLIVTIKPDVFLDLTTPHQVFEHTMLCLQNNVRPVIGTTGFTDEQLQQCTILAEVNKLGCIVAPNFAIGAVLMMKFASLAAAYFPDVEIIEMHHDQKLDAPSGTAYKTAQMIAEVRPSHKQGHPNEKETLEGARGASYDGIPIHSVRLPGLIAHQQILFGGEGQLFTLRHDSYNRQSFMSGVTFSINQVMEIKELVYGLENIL
T3 sequence (A0A3B6UER2 entry or part of it H36A): as the sequence (A0A3B6UER2 entry or part of it K37A) above, with H35A, A36K counted along it

`O=C(O)c1cccc(C(=O)O)n1` [DPA]: the “X-ray crystallography, co-crystals, 1.8 Å (binary) and 2.1 Å (with NADPH)” value in data set [1] is recorded as “Electron density corresponding to DPA was observed in the substrate-binding site of the C-terminal domain”.

The stoichiometry N is the number of molecules, sites or subunits per partner or assembly. Regarding “Dihydrodipicolinate reductase from Paenisporosarcina sp. TG-14 (enzyme)”, the stoichiometry N in data set [2] is 4.

For orientation: Kd means the equilibrium constant for the complex coming apart. Low readings indicate tighter binding, high ones weaker binding. Take `NC(=O)C1=CN([C@@H]2O[C@H](COP(=O)(O)OP(=O)(O)OC[C@H]3O[C@@H](n4cnc5c(N)ncnc54)[C@H](OP(=O)(O)O)[C@@H]3O)[C@@H](O)[C@H]2O)C=CC1` [NADPH]: the Kd in data set [3] was 37 µM; in data set [4], 236 µM. In data set [5], the no binding detected result is given as “H35A mutation induced complete loss of binding affinity”.

Turning to `NC(=O)C1=CN([C@@H]2O[C@H](COP(=O)(O)OP(=O)(O)OC[C@H]3O[C@@H](n4cnc5c(N)ncnc54)[C@H](O)[C@@H]3O)[C@@H](O)[C@H]2O)C=CC1` [NADH], in data set [6], the no binding detected result is given as “NADH did not bind to PaDHDPR”.

B1: PaDHDPR (Paenisporosarcina sp. TG-14) (protein)
chain: MIRVAIGGPRGKMGQEAVHTVMNNENMELVAVLDHKDIGDLLSESPNFPASYEVPVFLNLESLIVTIKPDVFLDLTTPHQVFEHTMLCLQNNVRPVIGTTGFTDEQLQQCTILAEVNKLGCIVAPNFAIGAVLMMKFASLAAAYFPDVEIIEMHHDQKLDAPSGTAYKTAQMIAEVRPSHKQGHPNEKETLEGARGASYDGIPIHSVRLPGLIAHQQILFGGEGQLFTLRHDSYNRQSFMSGVTFSINQVMEIKELVYGLENIL
notes: full length, residues 1-264; pET-28a N-terminal His tag removed by thrombin; expressed in E. coli BL21(DE3); homotetramer
The Km is the concentration of substrate that gives half-maximal velocity. One may read the kcat as the maximal rate divided by the concentration of active sites. In the case of B1, the Km stood at 22 ± 1.4 µM in data set [7], 43 ± 8.9 µM in [8] and 12 ± 1.6 µM in data set [9]. Besides, the kcat was 55 ± 1.2 s⁻¹ in data set [7], 7.1 ± 0.1 s⁻¹ in [8] and 52 ± 1.1 s⁻¹ in data set [9].

The record behind these values is paper PMC5962572, “Crystal structure of dihydrodipicolinate reductase (PaDHDPR) from Paenisporosarcina sp. TG-14: structural basis for NADPH preference as a cofactor” (Scientific Reports, 2018).
